Measured values published in PMC8368218 (Cell Discovery, 2021).
Several values for one entry are separate records, joined by “and”; a condition that tells them apart may be missing. Equal values may be shown once.

Tests used:
G3BP1^NTF2 [1] = biological target: G3BP1^NTF2 (UniProt Q13283); experiment: ITC
G3BP1^NTF2 [2] = biological target: T1, G3BP1^NTF2 (UniProt Q13283 11-133); experiment: ITC; details: both partners purified
T1 construct: also called NTF2 domain of G3BP1
T1 sequence (Q13283 11-133): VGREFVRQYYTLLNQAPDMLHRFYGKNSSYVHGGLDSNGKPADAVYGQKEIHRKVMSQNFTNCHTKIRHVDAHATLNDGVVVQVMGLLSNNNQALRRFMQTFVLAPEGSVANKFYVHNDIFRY

G3BP1^NTF2 (UniProt Q13283), sequence (Q13283 11-133): as above

SARS-CoV-2 N^11–24 F/A (from UniProt P0DTC9 11-24) (domain or fragment)
fold reduction of affinity against N^11–24 wild type (G3BP1^NTF2 [1]): 7 fold and 6 fold

SARS-CoV-2 N^11–24 I/A (from UniProt P0DTC9 11-24) (domain or fragment)
fold reduction of affinity against N^11–24 wild type (G3BP1^NTF2 [1]): 6 fold and 7 fold

B1: SARS-CoV-2 N^11–24 (domain or fragment)
chain: NAPRITFGGPSDST
notes: also called fragment from the N-IDR of N protein
Kd (G3BP1^NTF2 [2]): ~10 µM
